# Results published in PMC5314169, “Structure of the Branched-chain Amino Acid and GTP-sensing Global Regulator, CodY, from Bacillus subtilis*” (The Journal of Biological Chemistry, 2016).
# T1: CodY (wild type, C-terminal His5) (Bacillus subtilis, UniProt P39779 2-259)
# T1 sequence: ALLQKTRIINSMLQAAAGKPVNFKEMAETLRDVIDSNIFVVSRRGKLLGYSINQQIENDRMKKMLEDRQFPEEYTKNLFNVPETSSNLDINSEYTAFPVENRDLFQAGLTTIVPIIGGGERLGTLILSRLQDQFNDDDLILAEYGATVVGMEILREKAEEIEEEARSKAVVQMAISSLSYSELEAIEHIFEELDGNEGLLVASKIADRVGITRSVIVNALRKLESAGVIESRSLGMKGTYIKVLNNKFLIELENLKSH
# How the values were obtained:
# [1] = biological target: CodY(L3S), leucine 3 to serine mutant of CodY from Bacillus subtilis (Bacillus subtilis) (UniProt P39779); assay: crystal structure; CodY(L3S) at 18 mg/ml with 20 mM isoleucine; 15% PEG 5000, 5% tacsimate, 0.1 M HEPES pH 7.5; four molecules per asymmetric unit
# [2] = biological target: T1, CodY (wild type, C-terminal His5); assay: EMSA; 10 mM Ile/Leu/Val; apparent Kd, CodY monomer; C2 predominant; EMSA: 20 mM Tris-Cl pH 8.0, 50 mM KCl, 2 mM MgCl2, 5% glycerol, 0.5 mM EDTA, 1 mM DTT, 0.05% Nonidet P, salmon sperm DNA (printed 40-25 ug/ml), room temperature 16 min, +/-10 mM ILV; conditions: protein: recombinant, tags: C-terminal His5, chain copies: 2, blunt
# [3] = biological target: T1, CodY (wild type, C-terminal His5); assay: EMSA; 10 mM Ile/Leu/Val; only C1 complex; EMSA: 20 mM Tris-Cl pH 8.0, 50 mM KCl, 2 mM MgCl2, 5% glycerol, 0.5 mM EDTA, 1 mM DTT, 0.05% Nonidet P, salmon sperm DNA (printed 40-25 ug/ml), room temperature 16 min, +/-10 mM ILV; conditions: protein: recombinant; tags: C-terminal His5; chain copies: 2; label: 32P 5' on one strand; blunt
# [4] = biological target: the molecule itself; assay: SEC-MALLS; 100 ul of 1 mg/ml (~35 uM) protein on Superdex S200 10/300 in 50 mM Tris-HCl pH 7.5, 150 mM NaCl, with or without 10 mM isoleucine (no effect on the trace); no tetramers seen
# [5] = biological target: the molecule itself; assay: crystal structure; unliganded CodY, three crystal forms (A, B, C) grown from 10-20 mg/ml protein; form B with 10 mM GTP and form C with 5 mM GTPgammaS present but not seen bound; tetramer in all forms
molecule,measurement,setting,value
"CodY(L3S), leucine 3 to serine mutant of CodY from Bacillus subtilis (from UniProt P39779 1-259) (natural protein)",stoichiometry N,[1],4
BcaPp8(36) (dsDNA) DNA 1: CAAAATAAAAAATTTGTCGAATTTTCTGAAAATTTT DNA 2: AAAATTTTCAGAAAATTCGACAAATTTTTTATTTTG,Kd,[2]; label: 32P 5' on one strand in EMSA,1.6 nM
BcaPp8(31) (dsDNA) DNA 1: TAAAAAATTTGTCGAATTTTCTGAAAATTTT DNA 2: AAAATTTTCAGAAAATTCGACAAATTTTTTA,Kd,[2]; label: 32P 5' on one strand,1.6 nM
BcaPp8(19) (dsDNA) DNA 1: CGAATTTTCTGAAAATTTT DNA 2: AAAATTTTCAGAAAATTCG,binding result,[3],binds
"CodY from Bacillus subtilis, full-length, wild type (natural protein, what is left of the tag after cleavage with human rhinovirus 3C protease, printed as Gly-Pro-Ala; CodY, Bacillus subtilis, 259 amino acid residues, calculated mass 29 kDa; construct pET-YSBLIC-BsCodY; also called unliganded CodY; wild-type CodY; source: E. coli BL21(DE3), purified (nickel chelation, 3C protease cleavage, second nickel column, heparin, Superdex 200); not shown: polyhistidine, …) GPAMALLQKTRIINSMLQAAAGKPVNFKEMAETLRDVIDSNIFVVSRRGKLLGYSINQQIENDRMKKMLEDRQFPEEYTKNLFNVPETSSNLDINSEYTAFPVENRDLFQAGLTTIVPIIGGGERLGTLILSRLQDQFNDDDLILAEYGATVVGMEILREKAEEIEEEARSKAVVQMAISSLSYSELEAIEHIFEELDGNEGLLVASKIADRVGITRSVIVNALRKLESAGVIESRSLGMKGTYIKVLNNKFLIELENLKSH",stoichiometry N,[4],2
same,stoichiometry N,[5],4
